{"source": "paper PMC5172458", "proteins": {"B1": {"name": "ecTSase (Escherichia coli thymidylate synthase) (Escherichia coli K-12; H147V) (protein)", "chain": "MKQYLELMQKVLDEGTQKNDRTGTGTLSIFGHQMRFNLQDGFPLVTTKRCHLRSIIHELLWFLQGDTNIAYLHENNVTIWDEWADENGDLGPVYGKQWRAWPTPDGRHIDQITTVLNQLKNDPDSRRIIVSAWNVGELDKMALAPCVAFFQFYVADGKLSCQLYQRSCDVFLGLPFNIASYALLVHMMAQQCDLEVGDFVWTGGDTHLYSNHMDQTHLQLSREPRPLPKLIIKRKPESIFDYRFEDFEIEGYDPHPGIKAPVAI"}}, "substrate": "O=c1ccn([C@H]2C[C@H](O)[C@@H](COP(=O)(O)O)O2)c(=O)[nH]1", "test": "purified protein", "format": "biochemical, Escherichia coli", "conditions": "25 °C, CH2H4folate fixed at 50 μM, TCEP"}
{"protein": "B1", "values": [{"measurement": "Km", "value": "4.0 ± 1.3", "unit": "µM"}, {"measurement": "kcat", "value": "0.61 ± 0.04", "unit": "s⁻¹"}]}
